Results: publication PMC13046825, “A gated hydrophobic funnel within BAX binds bioactive lipids to potentiate pro-apoptotic function” (Nature Communications, 2024)

Legend:
[1] = target: T1, BAX (Homo sapiens, UniProt Q07812); assay: 1H-15N HSQC NMR chemical shift perturbation; MST; format: binding; parameters: 15N-labeled BAX WT
[2] = target: T1, BAX; assay: microscale thermophoresis; format: binding; parameters: recombinant human BAX WT
[3] = target: T2, BAX^2S (Homo sapiens, UniProt Q07812, C62S/C126S); assay: thermal shift, FLAMBE and LUV permeabilization with purified BAX^2S (activation); format: biochemical
T2 construct: recombinant human BAX, cysteine-replacement mutant

[4] = target: T1, BAX; assay: microscale thermophoresis; also 1H-15N HSQC NMR, FLAMBE, LUV permeabilization; format: binding; parameters: recombinant human BAX, without a tag or exogenous residues (Alexa Fluor 647-labeled for MST)
[5] = target: 5-TAMRA labeled BAK-BH3 peptide; assay: FLAMBE (fluorescence polarisation); conditions: BAKTAMRA 50 nM, read at 60 min, read off a plot

T1 sequence (Q07812 whole entry): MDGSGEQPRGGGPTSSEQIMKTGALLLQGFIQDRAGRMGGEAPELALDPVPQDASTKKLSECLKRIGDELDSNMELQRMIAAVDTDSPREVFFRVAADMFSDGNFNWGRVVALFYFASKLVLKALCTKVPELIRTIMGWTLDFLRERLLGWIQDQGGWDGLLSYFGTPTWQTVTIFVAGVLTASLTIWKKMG
T2 sequence (Q07812 whole entry C62S/C126S): as the sequence (Q07812 whole entry) above, with C62S, C126S counted along it

## CCCCCC/C=C/C=O [2t9, 2t-nonenal]
[1]
  1H-15N HSQC NMR chemical shift perturbation; MST: nonenal and especially pentenal interacted with several accessible regions of BAX

## CCCCCCCC/C=C/C=O [2t11, 2t-undecenal]
[2]
  microscale thermophoresis: When subjected to MST, BAX^WT exhibited altered thermophoresis with each of the alkenals

## CCCCCCCCC/C=C/C=O [2t12, 2t-dodecenal]
[2]
  microscale thermophoresis: When subjected to MST, BAX^WT exhibited altered thermophoresis with each of the alkenals

## CCCCCCCCCCCCC/C=C/C=O [2t16, 2-trans-hexadecenal]
[3]
  thermal shift, FLAMBE and LUV permeabilization with purified BAX^2S (activation): BAX^2S remained sensitive to hexadecenal-mediated changes in melting temperature, pore formation, and synergy with BIM‑BH3 peptide
[4]
  EC50: 0.182 µM

## recombinant human BAX, wild type (from UniProt Q07812) L59C; C62S; C126S; L162C
[5]; BAXα8 225 nM, 2t16 4.5 μM, no BIM-BH3
  response: 200 mP
[5]; BAXα8 225 nM, BIM-BH3 0.15 μM, 2t16 4.5 μM
  response: 260 mP
[5]; BAXα8 225 nM, BIM-BH3 0.15 μM, no 2t16
  response: 260 mP
[5]; BAXα8 225 nM, no BIM-BH3, no 2t16
  response: 200 mP

## recombinant human BAX, wild type (from UniProt Q07812) P168G
[5]; BAXP168G 65 nM, 2t16 3 μM, no BIM-BH3
  response: 240 mP
[5]; BAXP168G 65 nM, BIM-BH3 0.15 μM, 2t16 3 μM
  response: 300 mP
[5]; BAXP168G 65 nM, BIM-BH3 0.15 μM, no 2t16
  response: 310 mP
[5]; BAXP168G 65 nM, no BIM-BH3, no 2t16
  response: 260 mP
